Assay results reported in the supplement of paper PMC10724198.
± gives the standard deviation of the averaged measurements.

Legend:
Saccharomyces cerevisiae [1] = assay: protein stability index of tFT-peptide fusion (C-terminal peptide) (PSI (0-1 scale)); higher = more stable (slower turnover)
Method: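 MPS profiling in S. cerevisiae of the tFT-X12 degron library: putative degron peptides plus stable controls, 12 aa, fused to the C-terminus of a sfGFP-mCherry timer. Cells are FACS-sorted into 8 mCherry/sfGFP bins and deep-sequenced. PSI runs from 0 (unstable) to 1 (stable). Backgrounds are wild type, das1Δ and doa10Δ at 30 °C, and wild type, das1Δ, cdc34-1 and cdc53-1 at 37 °C; 2-3 technical replicates each.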

Saccharomyces cerevisiae [2] = assay: as above; details: genetic background: wild type; temperature: 30 C
[3] = genetic background: cdc34-1, temperature: 37 C
[4] = genetic background: cdc53-1, temperature: 37 C
[5] = genetic background: das1 deletion, temperature: 30 C
[6] = genetic background: das1 deletion, temperature: 37 C
[7] = genetic background: doa10 deletion, temperature: 30 C
[8] = genetic background: wild type, temperature: 30 C
[9] = genetic background: wild type, temperature: 37 C
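Also: PSI is a weighted mean of sequencing reads over stability bins, variants kept only with over 10 reads, mCherry proximal and sfGFP distal, peptide attached via GGGS linker.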

Sequence	protein stability index (Saccharomyces cerevisiae [1]; [3])	protein stability index (Saccharomyces cerevisiae [1]; [4])	protein stability index (Saccharomyces cerevisiae [1]; [5])	protein stability index (Saccharomyces cerevisiae [1]; [6])	protein stability index (Saccharomyces cerevisiae [1]; [7])	protein stability index (Saccharomyces cerevisiae [1]; [8])	protein stability index (Saccharomyces cerevisiae [1]; [9])	protein stability index (Saccharomyces cerevisiae [2])
WLFTSVTVFTFL	0.21366 ± 0.00013	0.299 ± 0.02	0.221 ± 0.023	0.421 ± 0.021	0.181 ± 0.0045	0.196 ± 0.013	0.347 ± 0.016	0.296 ± 0.045
WLSISNLVIACR	0.0277 ± 0.009	0.0619 ± 0.027	0.135 ± 0.039	0.156 ± 0.013	0.0862 ± 0.019	0.115 ± 0.025	0.127 ± 0.017	0.217 ± 0.013
WNSQGVFILAKC	0.54 ± 0.035	0.588 ± 0.032	0.375 ± 0.026	0.5687 ± 0.0026	0.334 ± 0.021	0.372 ± 0.021	0.561 ± 0.00046	0.4783 ± 0.0023
WRAFVFYHHFLD	0.665 ± 0.042	0.718 ± 0.028	0.655 ± 0.039	0.699 ± 0.014	0.329 ± 0.029	0.363 ± 0.029	0.5863 ± 0.0019	0.441 ± 0.015
WVFVETVFLVCG	0.147 ± 0.046	0.226 ± 0.04	0.176 ± 0.038	0.3159 ± 0.0011	0.142 ± 0.012	0.162 ± 0.03	0.2848 ± 0.0003	0.25 ± 0.02
WVGVVLLSVVGG	0.161 ± 0.016	0.249 ± 0.008	0.2 ± 0.032	0.344 ± 0.0057	0.164 ± 0.008	0.183 ± 0.025	0.32339 ± 0.00026	0.279 ± 0.032
WVWCVCVVVWCG	0.111 ± 0.0046	0.191 ± 0.051	0.153 ± 0.026	0.256 ± 0.013	0.135 ± 0.0037	0.14 ± 0.02	0.195 ± 0.026	0.25425 ± 0.00016
WVWFGCVLGYRV	0.571 ± 0.022	0.561 ± 0.025	0.426 ± 0.026	0.566 ± 0.021	0.442 ± 0.039	0.413 ± 0.027	0.531 ± 0.019	0.484 ± 0.022
WWVAGLGSSGGG	0.738 ± 0.016	0.77959 ± 0.00011	0.663 ± 0.026	0.788 ± 0.0094	0.686 ± 0.031	0.677 ± 0.0094	0.765 ± 0.026	0.7348 ± 0.0046
WWVVVRGGWCLC	0.336 ± 0.043	0.416 ± 0.014	0.286 ± 0.032	0.495 ± 0.009	0.1219 ± 0.0001	0.16 ± 0.0021	0.205 ± 0.0045	0.204 ± 0.011
